Entries after “also recorded” stand apart in the source; their conditions may differ. Non-standard residues stand in square brackets, D forms with d. No end group written: not given here. Phe(4-NH2) = Nc1ccc(C[C@H](N)C(=O)O)cc1
What was measured:
[1] = tested on: female C57B1/6 mice treated with 200 mg/kg cytoxan; conditions: 200 mg/kg cyclophosphamide i.v.
[2] = Tests of AII fragments for effectiveness (method not described); conditions: test not specified
[3] = tested on: AT2 receptor; conditions: cited from earlier work
[4] = tested on: mice injected with 150 mg/kg 5FU intravenously (WBC, platelets, hemoglobin); experiment: Effect of angiotensin fragments and ACE inhibitor on recovery after chemotherapy (Example 4); type: in vivo; conditions: for relative effect on increase in WBC (ranking of active agents): throughout the experimental period
Method: The next study was designed to test the effect of angiotensin peptides and the angiotensin converting enzyme inhibitor, enalapril, on recovery of white blood cells, platelets and hemoglobin after chemotherapy, as well as on granulocyte-macrophage colony forming units (GM-CFU) in the blood and bone marrow.
Female […] mice (4 per group), 6-8 weeks old, were injected with 150 mg/kg 5FU intravenously. Administration of the peptides (AII (100 μg/kg/day), AII(1-7) (10 or 100 μg/kg/day), AII(1-5) (10 or 100 μg/kg/day), and AII(1-6) (100 μg/kg/day)), by subcutaneous injection, or enalapril (30 mg/kg/day) by oral gavage, was begun 2 days after administration of the antineoplastic and continued daily until 28 days after 5FU administration, at which time the mice were euthanized for evaluation of white blood cell numbers, platelets, hemoglobin levels and the number of GM-CFU in the bone marrow and peripheral blood. On days 7, 10, 14 and 21 after 5FU administration, blood was taken under anesthesia from the retro-orbital sinus to assess white blood cell number, platelet number, and hemoglobin levels.
The mice were bled from the retro-orbital sinus at days 7, 10, 14 and 21. The mice were anesthetized with Metofane (an inhaled anesthesia). Approximately 150-200 μl of blood were obtained from the retro-orbital sinus with a heparinzed capillary tube. The blood was then placed in a 1.7 ml microfuge tube containing 10 mM EDTA and held on ice until further processing.
One hundred μl of blood was pipetted into a centrifuge tube, to which 900 μl of distilled water was added. The blood and water were mixed by inversion and allowed incubate at 4° C. for 20 minutes. The tube was then centrifuged at 12000 rpm to precipitate the cellular debri for 20 to 30 minutes at room temperature. Twenty μl of the supernatant from this centrifugation was then added into triplicate wells of a 96 well plate containing 180 μl of distilled water. The optical density, was then read using a microplate reader at […].
Twenty μl of blood was mixed with 200 μl of red blood cell (RBC) lysing solution (0.83% NH4Cl, 10 mM EDTA, 0.5% NaHCO3). The mixture was then incubated for 10 minutes at 4° C. After this incubation, the supernatant was removed and the pellet was resuspended in 100 μl of PBS. To this, 100 μl of 0.04% trypan blue was added. This mixture was vortexed and the number of WBC (baseline was approximately 10^7 cells/ml) was evaluated by hematocytometer under light microscopy and the number: of platelets (baseline was approximately 2.5×10^8 platelets/ml) was evaluated by hematocytometer under phase contrast microscopy.
The blood was harvested by cardiac puncture on day 10 to assess mobilization of myeloid progenitors into the peripheral blood. The femurs and tibia were also collected and the bone marrow was harvested by flushing with PBS containing 2% fetal calf serum. After collection of the blood and bone marrow, the red blood cells were lysed with a hypotonic solution (described above), mixed with 0.04% trypan blue, and the number of nucleated cells assessed by hematocytometer under light microscopy. Aliquots of cells were then resuspended at 1×10^5 cells/ml (bone marrow) or 1×10^6 cells/ml Flood). […]

[5] = tested on: animals given intravenous 5FU (white blood cells, CFU-GM); experiment: Effect of AII on white blood cell mobilization and recovery after 5-fluorouracil (Example 1); type: in vivo, mice; conditions: AII 10 or 100 μg/kg/day s.c., started day -2, 0 or 2 relative to i.v. 5FU; day 7 or 14; all tissues tested (blood, spleen, thymus, bone marrow)
Method: This study was designed to test the effect of AII on the recovery of white blood cells in lymphoid organs and on the level of granulocyte macrophage precursors (CFU-GM) in the blood (ie: mobilization), spleen (mobilization), and bone marrow (recovery) after intravenous administration of 5-fluorouracil (5FU). […] The number of white blood cells in each of the lymphoid organs, or the number of CFU-GM present in all the organs except the thymus were then assessed.

[6] = tested on: patients with newly diagnosed breast cancer receiving doxorubicin and cyclophosphamide
[7] = filgrastim 5.0 μg/kg/day comparator arm

For `O=P1(N(CCCl)CCCl)NCCCO1` (stereo not shown) [cyclophosphamide, reference compound], the “number of myeloid progenitors (GM-CFU) in the bone marrow after cyclophosphamide” value [1] was “significantly reduced”.

In the case of His-Pro-Phe (HPF) [AII(6-8)], the effectiveness in tests [2] is reported as “not to be effective”.

In the case of “Asp-Arg-Val-Tyr-Ile-Xaa-Pro-Phe (DRVYI[Phe(4-NH2)]PF) [(p-NH2-Phe)6-AII]”, the “affinity for AT2 relative to other receptor subtype” value [3] is given as 100 times and the “binding characteristics in the experimental models tested” value [3] is given as “comparable’ to AT2 antagonists”.

For `CCOC(=O)[C@H](CCc1ccccc1)N[C@@H](C)C(=O)N1CCC[C@H]1C(=O)O` [enalapril, reference compound], the “relative effect on increase in WBC (ranking of active agents)” value (shortened to “relative effect on increase in WBC”) [4] was “least effective”.

In the case of Tyr-Ile-His-Pro-Phe (YIHPF) [AII(4-8)], the effectiveness in tests [2] is reported as “not to be effective; also recorded: ineffective”.

With Asp-Arg-Val-Tyr-Ile (DRVYI) [AII(1-5)] the platelets after administration ([4]; after i.v. 5FU) was “increase in platelets”.

For DRVYIH [AII(1-6)], the “relative effect on increase in WBC” value [4] was “least effective”.

For “Asp-Arg-Val-Tyr-Ile-His-Pro-Phe (DRVYIHPF) [AII]”, the “white blood cell mobilization and/or recovery” value [5] was “significantly enhanced” and the “relative effect on increase in WBC” value [4] was “most profound effect”.

B1: Filgrastim: recombinant G-CSF (NEUPOGEN, Amgen, Inc.), comparator arm (protein, UniProt P09919 31-207, looked up)
Granulocyte …: TPLGPASSLPQSFLLKCLEQVRKIQGDGAALQEKLVSECATYKLCHPEELVLLGHSLGIPWAPLSSCPSQALQLAGCLSQLHSGLFLYQGLLQALEGISPELGPTLDTLQLDVADFATTIWQQMEELGMAPALQPTQGAMPAFASAFQRRAGGVLVASHLQSFLEVSYRVLRHLAQP
modifications: filgrastim, N-terminal methionine
With B1 the “Alopecia (frequency by treatment group)” value ([6]; chemotherapy patients) was 40%, the “Anemia (frequency by treatment group)” value ([6]; chemotherapy patients) was 60% and the “Fatigue (frequency by treatment group)” value ([6]; chemotherapy patients) was 80%. For the same molecule, the “Headache (frequency by treatment group)” value ([6]; chemotherapy patients) was 60%, the “Myalgia/Muscle-skeletal pain (frequency by treatment group)” value ([6]; chemotherapy patients) was 60% and the “Nausea (frequency by treatment group)” value ([6]; chemotherapy patients) was 100%. For the same molecule, the “Stomatitis (frequency by treatment group)” value ([6]; chemotherapy patients) was 60%, the “Vomiting (frequency by treatment group)” value ([6]; chemotherapy patients) was 60% and the “Toxicity: ANC < 1000/μl (frequency)” value [6, 7] was 40%. For the same molecule, the “Toxicity: Hgb < 10 gm/dl (frequency)” value [6, 7] was 60%, the “Toxicity: Lymph < 500/μl (frequency)” value [6, 7] was 80% and the “Toxicity: Platelet < 80 K/μl (frequency)” value [6, 7] was 60%. For the same molecule, the “Toxicity: WBC < 2000/μl (frequency)” value [6, 7] was 60%, the “frequency of grade 3-4 neutropenia” value ([6]; filgrastim compared to AII(1-7)) was “lower frequency” and the “change in platelet number” value ([6]; patients that received filgrastim, more pronounced in subsequent cycles) was “time dependent decrease in platelet number”.

Source: patent US7338938B2, “Methods for treating a patient undergoing chemotherapy” (University of Southern California, priority 1999, dated 2008)
